Measured values reported in publication PMC4210639 (Neuron, 2014).

Biological target: T1, FLRT3^LRR (leucine-rich repeat domain of mouse FLRT3) (mouse, UniProt Q8BGT1 29-359)
T1 sequence: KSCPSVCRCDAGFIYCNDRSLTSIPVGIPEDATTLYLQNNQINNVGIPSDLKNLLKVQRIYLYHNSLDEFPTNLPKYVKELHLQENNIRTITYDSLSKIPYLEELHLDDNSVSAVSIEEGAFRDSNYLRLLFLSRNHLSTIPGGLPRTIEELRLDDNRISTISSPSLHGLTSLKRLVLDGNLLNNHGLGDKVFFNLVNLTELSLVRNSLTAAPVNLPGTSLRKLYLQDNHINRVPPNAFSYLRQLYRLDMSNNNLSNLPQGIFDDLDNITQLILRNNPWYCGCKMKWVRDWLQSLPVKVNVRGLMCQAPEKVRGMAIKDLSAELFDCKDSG
Assay: SPR

- binding result: binds
B1: Unc5A^ecto (human Unc5A ectodomain) (domain or fragment)
chain: not shown
